Measured values: patent publication US20200283487A1 (UNIVERSITY OF SOUTHAMPTON, published 2020)

Biological target: T1, BSA (UniProt P02769 25-607)
T1 construct: Negative control analyte on the Biacore chip; also called BSA negative control
Assay: SPR (Biacore), rfhSP-A immobilised to ~700 RU, BSA as soluble analyte

T1 sequence (P02769 25-607 limits assumed): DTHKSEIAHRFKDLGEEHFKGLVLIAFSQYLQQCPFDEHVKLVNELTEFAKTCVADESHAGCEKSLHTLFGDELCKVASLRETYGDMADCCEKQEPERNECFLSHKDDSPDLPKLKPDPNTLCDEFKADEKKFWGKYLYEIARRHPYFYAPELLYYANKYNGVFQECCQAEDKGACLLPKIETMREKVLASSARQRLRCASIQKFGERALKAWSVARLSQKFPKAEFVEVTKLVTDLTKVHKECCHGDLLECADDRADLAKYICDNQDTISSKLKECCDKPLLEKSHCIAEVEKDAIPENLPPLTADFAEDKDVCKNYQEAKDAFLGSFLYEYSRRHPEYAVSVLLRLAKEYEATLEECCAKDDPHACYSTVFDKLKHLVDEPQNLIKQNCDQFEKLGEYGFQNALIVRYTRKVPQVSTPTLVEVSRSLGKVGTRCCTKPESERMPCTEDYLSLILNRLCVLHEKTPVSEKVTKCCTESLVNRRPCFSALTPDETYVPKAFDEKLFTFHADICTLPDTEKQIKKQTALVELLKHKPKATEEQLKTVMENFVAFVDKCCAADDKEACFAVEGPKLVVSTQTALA

B1: rfhSP-A (recombinant fragment of human surfactant protein A; truncated SP-A polypeptide) (other)
chain: not shown
notes: C-type lectin (collectin) fragment; also called rhfSP-A; trimeric rfhSP-A
binding result: no binding
